Results from patent publication US20050260565A1 (ICOS, published 2005).

What was measured:
FLAG-tagged 88C receptor [1] = target: T1, FLAG-tagged 88C receptor (human, UniProt P51681 1-352); assay: competition of the unlabeled ligand with 1.5 nM 125I-MIP-1β on HEK-293 cells expressing FLAG-tagged 88C
T1 sequence: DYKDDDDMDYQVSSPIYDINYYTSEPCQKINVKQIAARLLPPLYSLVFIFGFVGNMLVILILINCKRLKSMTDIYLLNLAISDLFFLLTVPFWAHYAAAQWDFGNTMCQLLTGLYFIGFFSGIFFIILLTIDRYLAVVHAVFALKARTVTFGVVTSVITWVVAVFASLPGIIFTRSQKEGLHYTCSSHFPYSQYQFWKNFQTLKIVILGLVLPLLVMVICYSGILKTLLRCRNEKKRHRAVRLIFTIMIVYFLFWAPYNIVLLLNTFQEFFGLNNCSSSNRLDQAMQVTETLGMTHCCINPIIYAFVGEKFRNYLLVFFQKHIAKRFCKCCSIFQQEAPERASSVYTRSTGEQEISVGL
Source text: (§1) Another assay for receptor interaction with chemokines was a modification of the binding assay described by Ernst et al., J. Immunol. 152:3541-3549 (1994). MIP-1β as labeled using the Bolton and Hunter reagent (di-iodide, NEN, Wilmington, Del.), according to the manufacturer's instructions. Unconjugated iodide was separated from labeled protein by elution using a PD-10 column (Pharmacia) equilibrated with PBS and BSA (1% w/v). The specific activity was typically 2200 Ci/mmole. Equilibrium binding was performed by adding ¹²⁵I-labeled ligand with or without a 100-fold excess of unlabeled ligand, to 5×10⁵ HEK-293 cells transfected with 88C tagged with the FLAG epitope in polypropylene tubes in a total volume of 300 μl (50 mM HEPES pH 7.4, 1 mM CaCl₂, MgCl₂, 0.5% BSA) and incubating for 90 minutes at 27° C. with shaking at 150 rpm. The cells were collected, using a Skatron cell harvester (Skatron Instruments Inc., Sterling, Va.), on glass fiber filters presoaked in 0.3% polyethyleneimine and 0.2% BSA. After washing, the filters were removed and bound ligand was quantitated by counting gamma emissions. Ligand binding by competition with unlabeled ligand was determined by incubation of 5×10⁵ transfected cells (as above) with 1.5 nM of radiolabeled ligand and the indicated concentrations of unlabeled ligand. The samples were collected, washed and counted as above. The data was analyzed using the curve-fitting program Prism (GraphPad Inc., San Diego, Calif.) and the iterative non-linear regression program, LIGAND (PM220).
In equilibrium binding assays, 88C receptor bound radiolabeled MIP-1β in a specific and saturable manner.

FLAG-tagged 88C receptor [2] = target: T1, FLAG-tagged 88C receptor; assay: cell-based or functional assay
FLAG-tagged 88C receptor [3] = target: T1, FLAG-tagged 88C receptor; assay: equilibrium binding of 125I-MIP-1β to HEK-293 cells expressing FLAG-tagged 88C, Scatchard analysis
Source text: as §1, with “The cells were collected, using a Skatron cell harvester (Skatron Instruments Inc., Sterling, Va.), on glass fiber filters presoaked in 0.3% polyethyleneimine and 0.2% BSA.” left out, “(PM220). […]” for “(PM220).”

B1: RANTES (Regulated on Activation, Normal T Expressed and Secreted) (ligand, UniProt P13501 24-91, looked up)
chain: SPYSSDTTPCCFAYIARPLPRAHIKEYFYTSGKCSNPAVVFVTRKNRQVCANPEKKWVREYINSLEMS
IC50 (FLAG-tagged 88C receptor [1]): 6.9 nM | EC50 of inositol phosphate formation (dose-response curves) (FLAG-tagged 88C receptor [2]): 1 nM

B2: MIP-1β (ligand, UniProt P13236 24-92, looked up)
chain: APMGSDPPTACCFSYTARKLPRNFVVDYYETSSLCSQPAVVFQTKRSKQVCADPSESWVQEYVYDLELN
modifications: ends and bridges not checked; also: 125I label (Bolton and Hunter reagent) where used as radiolabeled ligand
Kd (FLAG-tagged 88C receptor [3]): 1.6 nM | IC50 (FLAG-tagged 88C receptor [1]): 7.4 nM | EC50 of inositol phosphate formation (dose-response curves) (FLAG-tagged 88C receptor [2]): 6 nM

B3: MIP-1α (ligand, UniProt P10147 24-92, looked up)
chain: SLAADTPTACCFSYTSRQIPQNFIADYFETSSQCSKPGVIFLTKRSRQVCADPSEEWVQKYVSDLELSA
IC50 (FLAG-tagged 88C receptor [1]): 7.4 nM | EC50 of inositol phosphate formation (dose-response curves) (FLAG-tagged 88C receptor [2]): 22 nM
